Ends that are not written are not given here.
Biological target: T1, purified FADD protein (human, UniProt Q13158 1-208, limits assumed)
T1 sequence: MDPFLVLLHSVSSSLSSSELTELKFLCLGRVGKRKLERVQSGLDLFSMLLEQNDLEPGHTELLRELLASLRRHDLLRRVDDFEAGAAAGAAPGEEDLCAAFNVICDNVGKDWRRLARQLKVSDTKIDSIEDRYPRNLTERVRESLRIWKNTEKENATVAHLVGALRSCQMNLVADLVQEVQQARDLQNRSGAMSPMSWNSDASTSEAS
Test: GST pull-down of purified FADD, anti-FADD immunoblot
Description: In vitro binding assays. Purified GST, GST-MUC1-CD(1-72), GST-MUC1-CD deletion mutants, GST-caspase-8, GST-caspase-8 deletion mutants, GST-FADD, GST-N-FADD and GST-C-FADD protein (36) were purified from E. coli (BL21 DE3) and immobilized on glutathione-agarose beads (Pierce). His-MUC1-CD(1-72) and His-caspase-8 deletion mutant proteins were purified on Ni-NTA beads (Qiagen, Valencia, Calif.). GST and GST fusion proteins bound to glutathione beads were incubated with purified soluble proteins for 2 hours at 4° C., and washed. Adsorbates bound to the beads were analyzed by solubilizing the protein/bead mixture in Laemli buffer following by sodium dodecyl sulfate polyacrylamide gel electrophoresis (SDS-PAGE) and immunoblotting. For competition studies, GST-caspase-8 DED protein bound to FADD was incubated with increasing amounts of MUC1-CD protein. Precipitated proteins were subjected to SDS-PAGE and immunoblot analysis. In certain studies, binding was performed in the presence of a synthetic peptide ([…]) (SEQ ID NO:3) derived from amino acids 1-20 from MUC1-CD (Molecular Biology Core Facility, Dana-Farber Cancer Institute).

binding result: no binding
B1: GST-MUC1-CD(1-45) (other)
chain: {GST}-CQCRRKNYGQLDIFPARDTYHPMSEYPTYHTHGRYVPPSSTDRSP
modifications: cysteine pairing not given here; also: linker to GST not given here
notes: also called GST-MUC1-CD deletion mutant; not shown: GST fusion partner at the N end, and any linker to it

From patent US20110207656A1 (Dana-Farber, published 2011)
